These results are taken from publication PMC9171410 (EMBO Reports, 2022).

In one assay the target is T1, Gid10^65–284 (S. cerevisiae, UniProt P53242 65-284).
T1 sequence: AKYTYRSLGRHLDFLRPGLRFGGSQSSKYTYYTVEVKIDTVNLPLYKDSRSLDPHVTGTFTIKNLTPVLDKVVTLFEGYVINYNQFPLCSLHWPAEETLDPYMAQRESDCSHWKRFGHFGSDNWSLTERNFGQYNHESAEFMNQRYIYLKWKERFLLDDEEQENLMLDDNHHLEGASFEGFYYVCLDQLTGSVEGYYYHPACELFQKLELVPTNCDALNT
In words: crystal structure.

The next assay concerns the target T2, Gid10^57–292 (S. cerevisiae, UniProt P53242 57-292).
T2 sequence: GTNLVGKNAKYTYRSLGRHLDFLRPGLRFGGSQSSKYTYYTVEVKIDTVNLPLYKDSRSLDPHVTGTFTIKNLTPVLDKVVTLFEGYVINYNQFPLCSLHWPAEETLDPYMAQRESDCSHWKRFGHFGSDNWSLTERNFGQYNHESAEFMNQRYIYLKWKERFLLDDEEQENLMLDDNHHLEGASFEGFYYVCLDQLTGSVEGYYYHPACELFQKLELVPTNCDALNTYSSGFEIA
In words: ITC.

With PFITSRPW [Art2 degron peptide PFITSRPW], in the assay with Gid10^65–284, the binding result is listed as “binds”.

For the molecule PFITSRPVAW [Art2 degron peptide PFITSRPVAW], in the assay with Gid10^57–292, the Kd came out at 1030 nM.

One may read the Kd as the free concentration of one partner at which half of the binding sites on the other are occupied at equilibrium, for simple one-to-one binding.
